Data published in PMC3868510.

What was measured:
[1] = molecular target: soluble truncated αvβ6 integrin conjugated to alkaline phosphatase (UniProt P06756); assay: SPR; Biacore 2000, CM-5 chip; MAb LS-C44264 to placental alkaline phosphatase immobilised by amine coupling and used to capture the soluble integrin-AP; gH/gL injected at 50 µl/min; 25°C; 10 mM HEPES-NaOH pH 7.4, 150 mM NaCl, 0.005% P20; kobs against gH/gL concentration, 1:1 Langmuir
[2] = molecular target: soluble truncated αvβ8 integrin conjugated to alkaline phosphatase (UniProt P06756); assay: as above
soluble truncated αvβ8 integrin conjugated to alkaline phosphatase, sequence (P06756 31-1048, chain 1 of 2): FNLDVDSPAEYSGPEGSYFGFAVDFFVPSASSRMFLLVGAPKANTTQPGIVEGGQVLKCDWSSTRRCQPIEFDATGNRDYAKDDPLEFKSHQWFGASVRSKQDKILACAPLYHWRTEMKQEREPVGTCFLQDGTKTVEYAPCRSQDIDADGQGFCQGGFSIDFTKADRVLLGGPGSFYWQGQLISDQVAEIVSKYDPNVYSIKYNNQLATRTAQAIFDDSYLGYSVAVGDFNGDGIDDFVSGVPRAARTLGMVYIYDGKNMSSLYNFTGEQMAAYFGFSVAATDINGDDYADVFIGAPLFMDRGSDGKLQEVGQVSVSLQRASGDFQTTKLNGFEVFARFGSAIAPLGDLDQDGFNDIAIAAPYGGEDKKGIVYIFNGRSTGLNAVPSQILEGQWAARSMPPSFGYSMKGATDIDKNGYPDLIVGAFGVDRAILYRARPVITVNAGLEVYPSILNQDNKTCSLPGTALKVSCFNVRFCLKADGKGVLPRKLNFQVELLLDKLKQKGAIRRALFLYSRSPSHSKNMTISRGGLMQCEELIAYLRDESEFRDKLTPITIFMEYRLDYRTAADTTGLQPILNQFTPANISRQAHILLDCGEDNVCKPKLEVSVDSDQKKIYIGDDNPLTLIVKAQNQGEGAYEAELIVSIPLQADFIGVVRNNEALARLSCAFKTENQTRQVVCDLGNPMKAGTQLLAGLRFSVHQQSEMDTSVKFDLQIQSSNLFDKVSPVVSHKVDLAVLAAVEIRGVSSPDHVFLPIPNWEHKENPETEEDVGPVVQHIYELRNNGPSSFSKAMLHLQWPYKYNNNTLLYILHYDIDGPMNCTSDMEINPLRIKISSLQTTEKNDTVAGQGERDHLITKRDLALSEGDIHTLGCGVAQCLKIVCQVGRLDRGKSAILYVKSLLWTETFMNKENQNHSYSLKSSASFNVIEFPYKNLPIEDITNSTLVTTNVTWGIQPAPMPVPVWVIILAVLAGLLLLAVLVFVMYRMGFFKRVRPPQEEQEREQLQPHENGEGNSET
soluble truncated αvβ8 integrin conjugated to alkaline phosphatase, sequence (P26012 43-684, chain 2 of 2, further chain): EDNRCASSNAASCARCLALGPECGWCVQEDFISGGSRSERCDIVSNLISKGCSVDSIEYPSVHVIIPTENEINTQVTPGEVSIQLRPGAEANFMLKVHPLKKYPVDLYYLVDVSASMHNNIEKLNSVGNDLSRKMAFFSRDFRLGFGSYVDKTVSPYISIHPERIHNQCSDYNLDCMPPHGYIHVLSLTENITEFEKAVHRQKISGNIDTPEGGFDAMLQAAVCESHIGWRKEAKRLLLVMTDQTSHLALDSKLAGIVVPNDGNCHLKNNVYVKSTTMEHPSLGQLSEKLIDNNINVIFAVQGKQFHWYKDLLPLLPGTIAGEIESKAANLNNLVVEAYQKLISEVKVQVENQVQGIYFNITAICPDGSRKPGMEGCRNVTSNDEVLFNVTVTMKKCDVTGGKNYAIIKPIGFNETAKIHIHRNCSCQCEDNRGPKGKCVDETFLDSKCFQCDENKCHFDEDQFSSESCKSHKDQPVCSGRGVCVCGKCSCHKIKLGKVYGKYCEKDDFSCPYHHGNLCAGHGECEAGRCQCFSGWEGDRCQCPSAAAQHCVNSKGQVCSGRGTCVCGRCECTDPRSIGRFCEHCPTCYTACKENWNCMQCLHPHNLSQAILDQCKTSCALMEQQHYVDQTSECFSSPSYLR

soluble truncated αvβ6 integrin conjugated to alkaline phosphatase, sequence (P06756 31-1048, chain 1 of 2): as the sequence (P06756 31-1048, chain 1 of 2) above
soluble truncated αvβ6 integrin conjugated to alkaline phosphatase, sequence (P18564 22-709, chain 2 of 2, further chain): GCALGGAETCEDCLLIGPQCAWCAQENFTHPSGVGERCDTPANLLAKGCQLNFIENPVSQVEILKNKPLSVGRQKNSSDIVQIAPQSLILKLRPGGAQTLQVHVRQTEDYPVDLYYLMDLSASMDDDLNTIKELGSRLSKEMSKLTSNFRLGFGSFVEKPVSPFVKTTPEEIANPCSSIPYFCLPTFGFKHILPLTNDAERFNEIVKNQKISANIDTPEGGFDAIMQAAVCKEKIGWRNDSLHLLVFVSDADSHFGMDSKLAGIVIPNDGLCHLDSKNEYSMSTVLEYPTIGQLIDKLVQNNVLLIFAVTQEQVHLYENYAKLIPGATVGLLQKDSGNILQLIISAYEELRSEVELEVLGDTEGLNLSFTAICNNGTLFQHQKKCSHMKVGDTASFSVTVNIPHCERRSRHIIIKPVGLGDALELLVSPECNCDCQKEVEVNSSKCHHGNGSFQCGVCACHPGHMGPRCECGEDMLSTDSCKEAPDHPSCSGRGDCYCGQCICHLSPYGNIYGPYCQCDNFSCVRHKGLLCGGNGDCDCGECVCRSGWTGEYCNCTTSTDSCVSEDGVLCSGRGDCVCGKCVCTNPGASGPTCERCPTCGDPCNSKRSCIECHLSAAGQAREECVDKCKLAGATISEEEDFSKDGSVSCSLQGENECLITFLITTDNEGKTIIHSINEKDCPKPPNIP

“soluble form of HSV gH/gL (gHt/gL) (from UniProt P06477 19-838; P10185 20-224) (complex)” was tested, and the Kd [1] was 12 nM, the koff [1] was 0.0018 s⁻¹ and the kon [1] was 152000 M⁻¹ s⁻¹. The Kd [2] was 27 nM, the koff [2] was 0.005 s⁻¹ and the kon [2] was 207000 M⁻¹ s⁻¹.
